From US7501267B2, “Gene sequence of L-rhamnose isomerase having new catalytic function and use thereof” (Rare Sugar Production Technical Research Laboratories, LLC, priority 2003, dated 2009)
Read-outs that look alike come from different tables or passages of the source.

Experiments:
[1] = tested on: L-rhamnose isomerase produced by Pseudomonas stutzerii LL172; test: Effect of a chelating agent or metal ion on L-rhamnose isomerase activity; type: biochemical; settings: for Effect of a chelating agent on activity: coexisting during the measurement of activity
[2] = tested on: L-rhamnose isomerase produced by Pseudomonas stutzerii LL172; settings: Non-Patent Document 3, cited from earlier work; for Effect of a chelating agent on activity: coexisting during the measurement of activity
[3] = substrate: OC1OC[C@@H](O)[C@@H](O)[C@H]1O; test: cells, lysate or membranes named; settings: other: purified enzyme without immobilizing; pH 7.0
[4] = substrate: OC1OC[C@H](O)[C@@H](O)[C@H]1O; test: cells, lysate or membranes named; settings: other: purified enzyme without immobilizing; pH 7.0
[5] = substrate: OC1OC[C@H](O)[C@H](O)[C@H]1O; test: cells, lysate or membranes named; settings: other: purified enzyme without immobilizing; pH 7.0
[6] = cited from earlier work
[7] = substrate: C[C@@H]1OC(O)[C@H](O)[C@H](O)[C@H]1O; test: Km and Vmax of purified L-rhamnose isomerase for a variety of substrates; type: biochemical, Pseudomonas stutzeri; settings: other: purified enzyme without immobilizing; pH 7.0
Experimental: (§1) An enzyme was obtained with the same conditions as those of Example 5. The measurement of Km and Vmax was carried out using the enzyme without immobilizing.
(§2) The cells were washed twice with 0.05 M sodium phosphate buffer (pH 7.0). The washed cells were ground with alumina powder and subjected to centrifugation to remove insoluble substances together with alumina powder, whereby a crude enzyme solution was obtained. The obtained crude enzyme solution was subjected to affinity chromatography using an Ni-NTA column to purify the enzyme, whereby a pure enzyme was obtained. After the enzyme was dialyzed against ultrapure water, lyophilization was carried out, whereby pure powder enzyme was obtained. By allowing 20 mg of the enzyme to be adsorbed on 1 g of Chitopearl resin, immobilized enzyme was prepared.

[8] = substrate: OC[C@@H]1OC(O)[C@H](O)[C@H](O)[C@H]1O; test: as above; type: biochemical, Pseudomonas stutzeri; settings: other: purified enzyme without immobilizing; pH 7.0
Experimental: as §1, §2

[9] = substrate: OC[C@H]1OC(O)[C@@H](O)[C@H](O)[C@@H]1O; test: as above; type: biochemical, Pseudomonas stutzeri; settings: other: purified enzyme without immobilizing; pH 7.0
Experimental: as §1, §2

[10] = substrate: OC[C@H]1OC(O)[C@H](O)[C@H](O)[C@@H]1O; test: as above; type: biochemical, Pseudomonas stutzeri; settings: other: purified enzyme without immobilizing; pH 7.0
Experimental: as §1, §2

O=C(O)CN(CCN(CC(=O)O)CC(=O)O)CC(=O)O [EDTA]
Effect of a chelating agent on activity [1]: hardly inhibited | Effect of a chelating agent on activity [2]: hardly inhibited

O=C(O)CN(CCOCCOCCN(CC(=O)O)CC(=O)O)CC(=O)O [EGTA]
Effect of a chelating agent on activity [1]: hardly inhibited | Effect of a chelating agent on activity [2]: hardly inhibited

[Co+2] [cobalt ion]
Activity inhibited by metal ion ([1]; 1 mM): About 30% | Activity inhibited by metal ion ([2]; 1 mM): About 30%

B1: L-rhamnose isomerase derived from P. stutzeri (Stutzerimonas stutzeri) (protein)
chain: MAEFRIAQDVVARENDRRASALKEDYEALGANLARRGVDIEAVTAKVEKFFVAVPSWGVGTGGTRFARFPGTGEPRGIFDKLDDCAVIQQLTRATPNVSLHIPWDKADPKELKARGDALGLGFDAMNSNTFSDAPGQAHSYKYGSLSHTDAATRAQAVEHNLECIEIGKAIGSKALTVWIGDGSNFPGQSNFTRAFERYLSAMAEIYKGLPDDWKLFSEHKMYEPAFYSTVVQDWGTNYLIAQTLGPKAQCLVDLGHHAPNTNIEMIVARLIQFGKLGGFHFNDSKYGDDDLDAGAIEPYRLFLVFNELVDAEARGVKGFHPAHMIDQSHNVTDPIESLINSANEIRRAYAQALLVDRAALSGYQEDNDALMATETLKRAYRTDVEPILAEARRRTGGAVDPVATYRASGYRARVAAERPASVAGGGGII
Km [3]: 38.5 mM | Vmax [3]: 21.4 µmol/min/mg | Km [4]: 61.7 mM | Vmax [4]: 123 µmol/min/mg | Km [5]: 2.35 mM | Vmax [5]: 0.061 µmol/min/mg | Optimal pH: 9.0 | Optimal temperature: 60 °C | Temperature stability, activity remaining (10 min): ≥ 90% | Temperature stability, activity remaining ([6]; 10 min): ≥ 90% | Optimal pH ([6]; Non-Patent Document 3): 9.0 | Optimal temperature ([6]; Non-Patent Document 3): 60 °C | Km [7]: 11.9 mM | Vmax [7]: 238 µmol/min/mg | Km [8]: 55.5 mM | Vmax [8]: 139 µmol/min/mg | Km [9]: 71 mM | Vmax [9]: 0.01 µmol/min/mg | Km [10]: 42 mM | Vmax [10]: 6.76 µmol/min/mg
